# B1: PTN: Pleiotrophin, heparin binding growth factor; recombinant human PTN purchased from R&D systems (protein, UniProt P21246 33-168, looked up)
# Pleiotrophin: GKKEKPEKKVKKSDCGEWQWSVCVPTSGDCGLGTREGTRTGAECKQTMKTQRCKIPCNWKKQFGAECKYQFQAWGECDLNTALKTRTGSLKRALHNAECQKTVTISKPCGKLTKPKPQAESKKKKKEGKKQEKMLD
# How the values were obtained:
# [1] = system: long-term repopulating HSCs; experiment: Secondary competitive repopulating transplant assay; type: in vivo, mouse
# Experimental: Secondary competitive transplant assays were performed using whole BM harvested from primary CD45. 2^+ mice at 24 weeks following transplantation with either CD45. 1^+ BM 34^−KSL cells or the progeny of 34^−KSL cells following culture with TSF alone or TSF+PTN. Secondary recipient CD45. 2^+ C57Bl6 mice were irradiated with 950 cGy TBI and PB analysis of donor cell engraftment was performed at 12 weeks post-transplantation in secondary mice.
# In order to confirm that PTN caused the amplification of long-term repopulating HSCs with serial repopulating capacity, secondary transplants were performed. Importantly, secondary CD45.
# [2] = system: GFI-1; experiment: qRT-PCR of KSL cells after culture with TSF+PTN; type: cell-based, mouse; settings: TSF+100 ng/mL PTN x 7 days vs TSF alone
# Experimental: (§1) FIGS. 7A and 7B. […] (FIG. 7B) BM KSL cells were placed in culture with TSF (black bars) or TSF+100 ng/mL PTN (gray bars)×7 days and KSL cells were then isolated via FACS-sorting at day +7 for qRT-PCR analysis and comparison of gene expression. […] All comparisons were one tailed t tests.
# (§2) RT-PCR analyses of PTN in ECs and HES-1, GFI-1 and PTEN in BM KSL cells and FACS-sorted KSL cells following culture were performed using a 2-step RTPCR reaction as previously described (Chute et al, Proc Natl Acad Sci USA 103, 11707-12 (2006)). Conditioned medium (CM) was generated from HUBECs and non-brain ECs as previously described (Chute et al, Blood 100:4433-9 (2002), Chute et al, Blood 105: 576-83 (2005)) and ELISA for PTN was performed following manufacturer's guidelines.
# (§3) In order to determine a potential mechanism through which PTN mediates HSC expansion, an examination was made as to whether PTN altered pathways that are known to be affected by RPTPβ/ζ (Meng et al, Proc Natl Acad Sci USA 97: 2603-8 (2000), Stoica et al, J Biol Chem 276:16772-9 (2001), Landgraf et al, J Biol Chem 283:25036-45 (2008), Deuel et al, Arch Biochem Biophys 397:162-71 (2002)). Canonical PTN signaling occurs via binding and inactivation of RPTPβ/ζ (Meng et al, Proc Natl Acad Sci USA 97: 2603-8 (2000)), which can facilitate the tyrosine phosphorylation of several intracellular substrates, including Akt and β-catenin (Souttou et al, J Biol Chem 272:19588-93 (1997), Gu et al, FEBS Lett 581:382-8 (2007)). […] BM 34^− KSL cells were treated with TSF with and without 100 ng/mL PTN in the presence and absence of 10 μM wortmannin, a PI 3-kinase inhibitor (Souttou et al, J Biol Chem 272:19588-93 (1997)).
# [3] = system: HES-1; experiment: qRT-PCR of KSL cells after culture with TSF+PTN; type: cell-based, mouse; settings: TSF+100 ng/mL PTN x 7 days vs TSF alone
# Experimental: as §1, §2, §3
# [4] = system: PTEN; experiment: qRT-PCR of KSL cells after culture with TSF+PTN; type: cell-based, mouse; settings: HSCs following PTN exposure
# Experimental: as §1, §2, §3
# [5] = system: β-catenin; experiment: β-catenin assays; type: cell-based, mouse; settings: 34−KSL cells treated with PTN (data not shown)
# Source text: as §3
# [6] = system: BM stem and progenitor cells; experiment: In vivo PTN study in mice irradiated with 700 cGy TBI; design: species or system mouse; settings: 2 μg PTN intraperitoneally daily x 7 days, day +7
# Experimental: Adult B6.SJL mice received a single fraction of 700 cGy TBI and were then treated either with PBS (saline) or 2 μg PTN intraperitoneally daily ×7 days (beginning 4 hours post irradiation). At day +7, the mice were sacrificed and total viable BM cells were quantified. Flow cytometric analysis was performed to estimate the percentage of BM KSL cells in each femur (Chute at al, Blood 109:2365-72 (2007), Salter et al, Blood 113:2104-7 (2009)). Colony forming cell (CFC) assays were performed using MethoCult M3434 media (Stem Cell Technologies, Vancouver, BC) as previously described (Chute et al, Blood 109:2365-72 (2007), Salter et al, Blood 113:2104-7 (2009)). Long-term cultureinitiating cell (LTC-IC) assays were performed as follows: Murine M2-10B4 (ATCC CRL-1972) BM stromal cells were plated in a 24 well dish and irradiated with 1500 cGy. Limiting dilutions (45,000, 90,000, and 180,000) of BM MNCs from irradiated mice that were treated with either PTN or PBS were added to the stromal cell layers and maintained in MyeloCult M5300 media (Stem Cell Technologies) with weekly half-medium changes for 4 weeks. At 4 weeks, the non-adherent and adherent cells (15,000 cells/dish) were collected and plated into 3×35 mm dishes (MethoCult, StemCell Technologies). After two weeks, hematopoietic colonies were counted and scored.
# Since the addition of PTN was sufficient to induce HSC amplification in vitro a test was made as to whether administration of PTN could augment BM HSC regeneration in vivo following injury.
molecule,measurement,setting,value
B1,multilineage differentiation in secondary mice,[1]; 12 weeks,normal multilineage differentiation
same,"CD45.1+ cell engraftment in secondary mice, fold higher vs 34−KSL cell group or TSF alone group","[1]; 12 weeks post-transplant, BM harvested at 24 weeks from primary recipients",> 10 fold
same,GFI-1 expression,[2],upregulation
same,HES-1 expression,[3],upregulation
same,expression of PTEN,[4],down-modulated
same,activated form of β-catenin,[5],no increase
same,increase in BM colony forming cells (CFCs),[6],2.9 fold
same,increase in long-term culture-initiating cells (LTC-ICs) / BM HSC content,[6],11 fold
same,increase in primitive BM KSL cells compared to controls,[6],5.6 fold
same,increase in total BM cells compared to controls,[6],2.3 fold

# Reference: patent US20150216933A1, “HEMATOPOIETIC STEM CELL GROWTH FACTOR” (DUKE UNIVERSITY, priority 2008, published 2015)
